# Results: publication PMC8408140 (2021)
# B1: TFEB-EGFP [not stated] / Flag-TNKS1 [not stated] (parent complex)
# chain 1: MASRIGLRMQLMREQAQQEEQRERMQQQAVMHYMQQQQQQQQQQLGGPPTPAINTPVHFQSPPPVPGEVLKVQSYLENPTSYHLQQSQHQKVREYLSETYGNKFAAHISPAQGSPKPPPAASPGVRAGHVLSSSAGNSAPNSPMAMLHIGSNPERELDDVIDNIMRLDDVLGYINPEMQMPNTLPLSSSHLNVYSSDPQVTASLVGVTSSSCPADLTQKRELTDAESRALAKERQKKDNHNLIERRRRFNINDRIKELGMLIPKANDLDVRWNKGTILKASVDYIRRMQKDLQKSRELENHSRRLEMTNKQLWLRIQELEMQARVHGLPTTSPSGMNMAELAQQVVKQELPSEEGPGEALMLGAEVPDPEPLPALPPQAPLPLPTQPPSPFHHLDFSHSLSFGGREDEGPPGYPEPLAPGHGSPFPSLSKKDLDLMLLDDSLLPLASDPLLSTMSPEASKASSRRSSFSMEEGDVL
# chain 2: MAASRRSQHHHHHHQQQLQPAPGASAPPPPPPPPLSPGLAPGTTPASPTASGLAPFASPRHGLALPEGDGSRDPPDRPRSPDPVDGTSCCSTTSTICTVAAAPVVPAVSTSSAAGVAPNPAGSGSNNSPSSSSSPTSSSSSSPSSPGSSLAESPEAAGVSSTAPLGPGAAGPGTGVPAVSGALRELLEACRNGDVSRVKRLVDAANVNAKDMAGRKSSPLHFAAGFGRKDVVEHLLQMGANVHARDDGGLIPLHNACSFGHAEVVSLLLCQGADPNARDNWNYTPLHEAAIKGKIDVCIVLLQHGADPNIRNTDGKSALDLADPSAKAVLTGEYKKDELLEAARSGNEEKLMALLTPLNVNCHASDGRKSTPLHLAAGYNRVRIVQLLLQHGADVHAKDKGGLVPLHNACSYGHYEVTELLLKHGACVNAMDLWQFTPLHEAASKNRVEVCSLLLSHGADPTLVNCHGKSAVDMAPTPELRERLTYEFKGHSLLQAAREADLAKVKKTLALEIINFKQPQSHETALHCAVASLHPKRKQVTELLLRKGANVNEKNKDFMTPLHVAAERAHNDVMEVLHKHGAKMNALDTLGQTALHRAALAGHLQTCRLLLSYGSDPSIISLQGFTAAQMGNEAVQQILSESTPIRTSDVDYRLLEASKAGDLETVKQLCSSQNVNCRDLEGRHSTPLHFAAGYNRVSVVEYLLHHGADVHAKDKGGLVPLHNACSYGHYEVAELLVRHGASVNVADLWKFTPLHEAAAKGKYEICKLLLKHGADPTKKNRDGNTPLDLVKEGDTDIQDLLRGDAALLDAAKKGCLARVQKLCTPENINCRDTQGRNSTPLHLAAGYNNLEVAEYLLEHGADVNAQDKGGLIPLHNAASYGHVDIAALLIKYNTCVNATDKWAFTPLHEAAQKGRTQLCALLLAHGADPTMKNQEGQTPLDLATADDIRALLIDAMPPEALPTCFKPQATVVSASLISPASTPSCLSAASSIDNLTGPLAELAVGGASNAGDGAAGTERKEGEVAGLDMNISQFLKSLGLEHLRDIFETEQITLDVLADMGHEELKEIGINAYGHRHKLIKGVERLLGGQQGTNPYLTFHCVNQGTILLDLAPEDKEYQSVEEEMQSTIREHRDGGNAGGIFNRYNVIRIQKVVNKKLRERFCHRQKEVSEENHNHHNERMLFHGSPFINAIIHKGFDERHAYIGGMFGAGIYFAENSSKSNQYVYGIGGGTGCPTHKDRSCYICHRQMLFCRVTLGKSFLQFSTMKMAHAPPGHHSVIGRPSVNGLAYAEYVIYRGEQAYPEYLITYQIMKPEAPSQTATAAEQKT
# Variants of: B1
# Assay: co-immunoprecipitation (anti-GFP IP, immunoblot quantification); HEK293T cells; three independent immunoblots; parent: 1; read off a plot
row,Variant,ratio to parent
1,"chain 1 MASRIGLRMQLMREQAQQEEQRERMQQQAVMHYMQQQQQQQQQQLGGPPTPAINTPVHFQSPPPDPVAVLKVQSYLENPTSYHLQQSQHQKVREYLSETYGNKFAAHISPAQGSPKPPPAASPGVRAGHVLSSSAGNSAPNSPMAMLHIGSNPERELDDVIDNIMRLDDVLGYINPEMQMPNTLPLSSSHLNVYSSDPQVTASLVGVTSSSCPADLTQKRELTDAESRALAKERQKKDNHNLIERRRRFNINDRIKELGMLIPKANDLDVRWNKGTILKASVDYIRRMQKDLQKSRELENHSRRLEMTNKQLWLRIQELEMQARVHGLPTTSPSGMNMAELAQQVVKQELPSEEGPGEALMLGAEVPDPEPLPALPPQAPLPLPTQPPSPFHHLDFSHSLSFGGREDEGPPGYPEPLAPGHGSPFPSLSKKDLDLMLLDDSLLPLASDPLLSTMSPEASKASSRRSSFSMEEGDVL [chain 1 V65D, chain 1 G67V, chain 1 E68A]",~0.4
